Test [1] addresses BACE (recombinant human BACE catalytic domain, expressed in CHO cells as BACE-T-IgG, IgG1 removed with thrombin) (human) (UniProt P56817). Put plainly: binding assay without UV light (fluorescence anisotropy); absence of UV light.
Test [2] has the same target. The test is described as follows: fluorescence anisotropy binding assay. (In general: Polarisation of emitted light reports the rotation of a fluorescent probe.)
Test [3] has the same target. The test is described as follows: ITC, pH 5.3, 37° C., peptide titrated into CHO BACE pre-incubated with a 10-fold excess of OM99-2.
For test [4] the target is unchanged. The test is described as follows: fluorescence anisotropy competition against 10 nM Molecule X on BACE, pH 7.1, upper panel.
The target is the same in test [5]. The test is described as follows: fluorescence anisotropy competition against Molecule X on BACE, pH 4.5, lower panel; labelled 'Ka(nM)' on the sheet, it is the dissociation constant of the competing ligand; error 337.16; the text prints it rounded (1073 nM).
Test [6] has the same target. The test is described as follows: fluorescence anisotropy competition against Molecule X on BACE, pH 7.1, upper panel; labelled 'Ka' on the sheet without a unit, it is the dissociation constant of the competing ligand, nM from the axis and the lower table; error 33.456; the text prints it rounded (84 nM).
The target is the same in test [7]. Put plainly: fluorescence anisotropy competition against Molecule X, pH 4.5.
The target is the same in test [8]. Put plainly: ITC, Dulbecco's PBS, pH 7.1, 25° C.
For test [9] the target is unchanged. The test is described as follows: ITC, pH 5.3, 37° C., peptide titrated into CHO BACE.
For test [10] the target is unchanged. The test is described as follows: ITC, 25° C., Dulbecco's PBS.
For test [11] the target is unchanged. Put plainly: fluorescence anisotropy competition against Molecule X, pH 7.1.
Test [12] has the same target. The test is described as follows: fluorescence anisotropy competition against 10 nM Molecule Y1 on BACE, pH 4.5.
For test [13] the target is unchanged. Put plainly: fluorescence anisotropy competition against Molecule Y1, pH 4.5.
Test [14] has the same target. Put plainly: fluorescence anisotropy competition against Molecule Y1 on BACE, pH 4.5; labelled 'Ka(nM)' on the sheet, it is the dissociation constant of the competing ligand; error 102.58; the text prints 1197 nM.
The target is the same in test [15]. Put plainly: ITC, Dulbecco's PBS, pH 7.0, 25° C.
Test [16] has the same target. The test is described as follows: ITC, 25° C., 50 mM NaOAc, pH 4.5. (ITC needs no label: the signal is the heat of the interaction.)
Test [17] shares this target. The test is described as follows: ITC, 50 mM NaOAc, pH 4.5, 25° C.
For test [18] the target is unchanged. Put plainly: fluorescence anisotropy, BACE titrated into 10 nM Molecule Y1, no OM99-2, fit to 1:1 binding (error 2.1556); the text prints this value rounded (57 / 58 nM).
Test [19] shares this target. The test is described as follows: fluorescence anisotropy, BACE titrated into 10 nM Molecule Y1 in the presence of 10 µM OM99-2, fit to 1:1 binding (error 1.5032); this table prints 'Kd' without a unit, nM is taken from the concentration axis and the -OM99-2 table.
The target is the same in test [20]. The test is described as follows: fluorescence anisotropy, BACE titrated into 10 nM Molecule Y1 with 10 µM OM99-2; reference: without OM99-2.
The target is the same in test [21]. The test is described as follows: fluorescence anisotropy binding assay, pH 4.5; comparison of label positions (X, Y1, Z).
The target in test [22] is T1, BACE-1 (T7-BACE1(A14-T454)) (Homo sapiens (Human), UniProt P56817 14-454).
T1 construct: BACE dimer in the asymmetric unit; also called Construct #1
T1 sequence (P56817 other isoform, or with tags, fused parts or gaps limits assumed): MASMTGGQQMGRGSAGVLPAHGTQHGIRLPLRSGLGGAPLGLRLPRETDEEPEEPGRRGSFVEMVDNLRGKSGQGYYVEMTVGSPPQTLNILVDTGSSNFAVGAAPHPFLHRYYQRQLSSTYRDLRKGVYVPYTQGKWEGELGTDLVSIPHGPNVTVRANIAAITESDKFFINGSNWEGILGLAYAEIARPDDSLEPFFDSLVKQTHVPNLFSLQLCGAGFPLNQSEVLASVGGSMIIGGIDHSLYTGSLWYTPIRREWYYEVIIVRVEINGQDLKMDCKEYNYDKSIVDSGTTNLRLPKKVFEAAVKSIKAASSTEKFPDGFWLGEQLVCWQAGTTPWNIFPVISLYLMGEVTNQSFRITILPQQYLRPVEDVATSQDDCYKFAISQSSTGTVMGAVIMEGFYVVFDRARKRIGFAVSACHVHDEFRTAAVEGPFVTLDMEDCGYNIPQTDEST
Put plainly: X-ray crystallography, peptide soaked into BACE-1/DPH-153979 co-crystal. The method, then: Crystals appeared overnight and grew to their final dimensions (0.4×0.3×0.2 mm) in about two weeks.
Data were collected at 100° K using a Rigaku R-axis II system mounted on a RU-200 rotating anode generator and processed using HKL2000 (Otwinowski et. al., (1997) Methods in Enzymology, Macromolecular Crystallography, Part A; C. W. Carter, Jr. and R. M. Sweet, Eds.; Academic Press: New York, 276:307-326) (Table 6). The structure was determined by molecular replacement using the program EPMR (Kissinger et. al. (1999) Acta Crystallog. Sect. D, 55:484-491) in space group P2₁ with one BACE dimer per asymmetric unit. The starting model used was a BACE dimer (without inhibitor) from a previously determined structure. […] The active site inhibitor DPH-153979 was built into the electron density using the program QUANTA (Accelrys Software, Inc.) and refinement was carried out using the program CNX (Accelrys Software, Inc.). […] Refinement was not carried out past initial building of YPYFI due to ambiguous exosite peptide density.

In test [23] the target is BACE (recombinant human BACE catalytic domain, expressed in CHO cells as BACE-T-IgG, IgG1 removed with thrombin) (human) (UniProt P56817). The test is described as follows: fluorescence anisotropy, pH 4.5 (value quoted for the labeled EBP used in the truncation screen).
Chain of BACE (recombinant human BACE catalytic domain, expressed in CHO cells as BACE-T-IgG, IgG1 removed with thrombin) (human) (P56817 43-460 limits assumed, form in doubt): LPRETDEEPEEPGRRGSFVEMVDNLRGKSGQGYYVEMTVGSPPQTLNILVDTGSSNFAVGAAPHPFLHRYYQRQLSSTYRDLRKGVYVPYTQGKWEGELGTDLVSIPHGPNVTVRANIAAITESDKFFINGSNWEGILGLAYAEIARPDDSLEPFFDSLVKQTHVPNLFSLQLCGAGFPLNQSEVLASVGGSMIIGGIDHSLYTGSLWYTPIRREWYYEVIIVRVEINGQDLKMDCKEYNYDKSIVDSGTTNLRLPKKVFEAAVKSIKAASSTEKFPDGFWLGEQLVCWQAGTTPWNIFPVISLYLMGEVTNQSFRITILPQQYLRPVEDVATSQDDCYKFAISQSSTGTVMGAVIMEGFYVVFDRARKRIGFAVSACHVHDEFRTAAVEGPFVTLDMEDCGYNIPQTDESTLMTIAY
For test [24] the target is unchanged. The test is described as follows: fluorescence anisotropy binding assay, pH 4.5.
The target is the same in test [25]. Put plainly: fluorescence anisotropy, BACE titrated into 10 nM labeled peptide, pH 4.5, 1:1 model.
Test [26] has the same target. Put plainly: fluorescence anisotropy, BACE titrated into 10 nM labeled peptide, pH 7.1, 1:1 model.
For test [27] the target is unchanged. The test is described as follows: cell-based or functional assay.

Where no end group is shown, it is not given here. Alexa488 = Alexa488 fluorophore label

Regarding YPYFIPB-Alexa488 (peptide), the dissociation constant (Kd) (usually the free concentration of one partner at which half of the binding sites on the other are occupied at equilibrium, for simple one-to-one binding) in [1] stood at 100 nM.
For YPBFIPL-Alexa488 (peptide), in [1], the Kd was 100 nM.

B1: Molecule Y2 (peptide)
peptide: YPYFIPL
modifications: not fully specified (N-terminus, C-terminus)
In the case of B1, the dissociation constant (Kd) in test [2] came to 92 nM.

B2: … (peptide)
peptide: Ac-NLTTYPYFIPLP-NH2
As to B2, the Kd in test [3] was 280 nM; in test [5], 1070 nM; in [6], 84.2 nM; in [7] it was 1070 nM; in test [8], 61 nM; in test [9] it was 380 nM. Moreover, the equilibrium dissociation constant (Kd) in test [11] came out at 84 nM. In addition, the Stoichiometry (mole:mole) in [3] was 0.96 mole:mole; in test [9] it was 0.93 mole:mole. The T(dS) in [3] is -5.7 kcal/mol; in [9], -6.8 kcal/mol. Besides, the ΔG was -9.3 kcal/mol in test [3] and -9.1 kcal/mol in test [9]. In addition, the ΔH in test [3] is -15 kcal/mol; in [9], -15.9 kcal/mol; in test [10], -12.9 kcal/mol. In test [4], the IC50 (read off the curve) is 500 nM. For the same molecule, the Ka in test [10] worked out at 1.65e+07 M⁻¹. Further, the n (stoichiometry) in [10] is 1.03.

B3: YPYFIPL (peptide)
peptide: Ac-YPYFIPL-NH2
For the molecule B3, the IC50 (read off the curve) in test [12] amounted to 3000 nM. Also, the Kd in test [13] and in test [14] was 1200 nM each time.

B4: … (peptide)
peptide: Ac-ALYPYFLPISAK-NH2
Take B4: in [8], the dissociation constant (Kd) is 113 nM. Besides, in [10], the Ka amounted to 8.86e+06 M⁻¹, the n (stoichiometry) is 1.06 and the ΔH was -11.8 kcal/mol.

B5: BMS-655507 (Ac-His-Trp-Pro-Phe-Phe-Ile-Arg-Ser) (peptide)
peptide: Ac-HWPFFIRS-NH2
As for B5, in test [15], the Kd was found to be 914 nM, the Stoichiometry amounted to 0.71, the TΔS is -9.81 kcal/mol and the ΔG was -8.23 kcal/mol. In addition, in test [15], the ΔH was -18 kcal/mol. Moreover, the Ka in [16] turned out to be 610000 M⁻¹. Besides, in [17], the Kd amounted to 1640 nM, the Stoichiometry was 0.86, the TΔS is -5.46 kcal/mol and the ΔG was -7.9 kcal/mol. The ΔH in [17] is -13.3 kcal/mol. For the same molecule, in test [10], the Ka stood at 1.09e+06 M⁻¹.

B6: Molecule Y1 (YPYFIPL with C-terminal Alexa488) (peptide)
peptide: YPYFIPL
modifications: not fully specified (N-terminus, C-terminus)
On to B6, for which the Kd is 57.6 nM in test [18], 57 nM in test [2], 9.59 nM in test [19] and 58 nM in test [21]. In test [20], the fold enhancement of affinity in the presence of 10 µM OM99-2 worked out at 5 fold.

B7: Molecule Y4 (peptide)
peptide: YPYFIPL
modifications: not fully specified (N-terminus, C-terminus)
On to B7, for which the Kd in [2] amounted to 62 nM.

B8: BMS-597041 (YPYFIPL-Alexa488 Fluorophore) (peptide)
peptide: YPYFIPL-Alexa488
Consider B8, for which the binding result in [22] is on record as “binds”.

B9: Molecule X (… labeled with Alexa488) (peptide)
peptide: NLTTYPYFIPLP
modifications: also: Alexa488 label, position shown only
As to B9, the equilibrium dissociation constant (Kd) in test [23] is 1000 nM; in test [24], 903 nM; in [25] it was 904 nM; in test [26] it was 139 nM.

B10: Molecule Y3 (peptide)
peptide: YPYFIPL
modifications: not fully specified (N-terminus, C-terminus)
B10: the Kd in [2] came out at 48 nM. In addition, in test [27], the IC50, inhibition of the proteolytic activity of BACE (cleavage of MCA-…(-dnp)-COOH, HPLC) was found to be 731 nM.

The record behind these values is patent US20070149763A1 (Bristol-Myers Squibb, published 2007).
